Experimental findings from article PMC2654718 are described below.

Test [1] addresses MBP-VDR-LBDmt (human). As to the kind of experiment: ITC. On the technique in general: In ITC the heat of successive injections is recorded.
In test [2] the target is MBP-VDR-LBDmt (human). Briefly: pull-down.

By Kd is commonly meant the concentration at which binding is half-saturated. A word on the stoichiometry N: it is a count of units in the complex or per binding partner. As for SRC2-3 peptide, Texas Red labeled, in test [1], the Kd came out at 285 nM, the dH was -2.2 kcal/mol and the stoichiometry N was determined as 0.93.

SRC2-3 peptide, unlabeled: in test [1], the Kd stood at 174 nM, the dH was -6.7 kcal/mol and the stoichiometry N was 1.02.

SRC3-1 peptide, unlabeled: the peptide concentration at which inhibition of SRC2-VDR binding was observed in test [2] was > 50 µM.
